Experimental data as given in paper PMC8413284.

Experiments:
[1] = biological target: recombinant human FcγRI (human) (UniProt P12314); experiment: SPR
[2] = biological target: recombinant human FcγRIIIa (human) (UniProt P08637); experiment: SPR; F158 allotype
[3] = biological target: recombinant human FcγRIIa (human) (UniProt P12318); experiment: SPR; R131 allotype
[4] = biological target: rituximab hIgG1 μtp pre-formed hexamer (human); experiment: negative stain electron microscopy; antibody 10 μg/ml on grids, 2% uranyl acetate, x80,000
[5] = biological target: rituximab hIgG1 μtp pre-formed hexamer (human); experiment: SEC-MALS; 50 μg on Superdex 200 increase 10/300, PBS pH 7.4, 0.5 ml/minute; absolute molecular weight
[6] = biological target: rituximab hIgG1 μtp pre-formed hexamer (human); experiment: SEC; SE-UHPLC after Protein A purification, against molecular weight controls; ACQUITY BEH200, 200 mM phosphate pH 7.0, 1 µg injected

Chain of UniProt P12314 (P12314 16-292): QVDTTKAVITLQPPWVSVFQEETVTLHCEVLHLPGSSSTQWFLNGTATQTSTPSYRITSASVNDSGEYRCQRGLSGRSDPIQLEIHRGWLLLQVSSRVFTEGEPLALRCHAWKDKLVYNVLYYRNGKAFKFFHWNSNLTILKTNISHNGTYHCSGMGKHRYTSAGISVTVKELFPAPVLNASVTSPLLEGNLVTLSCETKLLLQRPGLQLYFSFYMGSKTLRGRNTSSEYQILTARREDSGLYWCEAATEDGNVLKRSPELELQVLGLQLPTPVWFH
Chain of UniProt P08637 (P08637 17-208): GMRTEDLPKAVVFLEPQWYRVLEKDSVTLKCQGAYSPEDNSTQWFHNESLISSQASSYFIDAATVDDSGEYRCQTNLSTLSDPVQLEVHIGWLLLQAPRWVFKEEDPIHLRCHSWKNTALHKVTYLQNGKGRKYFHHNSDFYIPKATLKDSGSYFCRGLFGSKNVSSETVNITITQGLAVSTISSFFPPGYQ
Chain of UniProt P12318 (P12318 34-217): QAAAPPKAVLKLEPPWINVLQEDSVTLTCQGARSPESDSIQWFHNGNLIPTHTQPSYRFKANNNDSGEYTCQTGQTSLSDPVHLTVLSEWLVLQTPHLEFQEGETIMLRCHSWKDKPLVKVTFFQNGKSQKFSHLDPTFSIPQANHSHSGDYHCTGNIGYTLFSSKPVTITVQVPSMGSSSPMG

Kd [1] [nM] | Kd [2] [nM] | Kd [3] [nM] | stoichiometry N [4] | stoichiometry N [5] | stoichiometry N [6] | Substance
7.53 | 410 | 964 | – | – | – | rituximab hIgG1 μtp pre-formed hexamer
4.36 | 719 | 935 | – | – | – | rituximab hIgG1 wild-type
– | – | – | 6 | 6 | 6 | rituximab hIgG1 μtp pre-formed hexamer (antibody)
